# Test results: patent publication US8361510B2, “Nanogels for cellular delivery of therapeutics” (Georgia Tech Research Corporation, priority 2008, dated 2013)
# Where no end group is shown, it is not given here.
# Experiment: siRNA encapsulation in nanogels ("breathing-in" loading, UV-vis of supernatant)
# Format: physicochemical
# Details: lyophilized nanogels reswollen in siRNA solution
# Source text: In vitro siRNA encapsulation and release. Our group employs a “breathing-in” method for the encapsulation of various macromolecules within nanogels. In a typical method, lyophilized nanogels are resuspended in an aqueous solution containing the macromolecule to be loaded. Importantly, this is done using a loading solution volume that is almost completely imbibed by the swelling nanogels. In this fashion, the hydrogel network imbibes the payload with high efficiency and without relying on simple equilibrium partitioning to determine the maximum loading level. […]
# The encapsulation efficiency was determined via ultracentrifugation of the nanogel loading solution and measurement of supernatant siRNA concentration by UV-vis spectroscopy (Shimadzu UV-1601). The moles of siRNA in the loading solution (msiRNA, Loading) and in the supernatant (msiRNA, Supernatant) were determined via interpolation from a separately constructed standard curve of absorbance vs. concentration (R^2>0.99). The encapsulation efficiency (EE) of the system could then be calculated through analysis of the amount of siRNA in the loading solution and the remaining moles of siRNA in the supernatant after nanogel swelling was complete, as illustrated by Equation 1 and in similar encapsulation experiments. […]
substance,measurement,value
YSA-conjugated nanogels: core/shell pNIPMAm nanogels with YSA peptide coupled to shell amines via maleimide (EMCA) (YSAYPDSVPMMSC; also: coupled to nanogel shell amines via maleimide (EMCA)),siRNA encapsulation efficiency,93±1%
